± gives the uncertainty stated by the source.
B1: Gamma-crystallin S, residues 96 to 176; numbered along this chain, P22914 (parent)
chain: IQIFEKGDFSGQMYETTEDCPSIMEQFHMREIHSCKVLEGVWIFYELPNYRGRQYLLDKKEYRKPIDWGAASPAVQSFRRI

Variants of: B1
Test: abundance fitness (aPCA) (normalised: wild type 0, dead -1); higher = more abundant; growth selection in yeast, the domain comes from the species named
Details: Homo sapiens

| Variant | abundance fitness |
| --- | --- |
| IQIFEKGDFSGQMYETTEDCPSIMEQFHMREIHSCKVLEGVWIFYELPNTRGRQYLLDKKEYRKPIDWGAASPAVQSFRRI | -0.949 ± 0.081 |
| IQIFEKGDFSGQMYETTEDCPSIMEQFHMREIHSCKVLEGVWIFYELPNYRGRQYLLYKKEYRKPIDWGAASPAVQSFRRI | -0.067 ± 0.22 |
| IQIFEKGDFSGQMYETTEDCPSIMEQFHMREIHSCKVLEGVWIFYELPNYRGRQYLLDKKEYRKPIDPGAASPAVQSFRRI | -0.289 ± 0.15 |
| IQIFEKGDFSGQMYETTEDCPSIMEQFHMREIHSCKVLEGVWIFYELPNYRGRQYLLDKKEYRKPILWGAASPAVQSFRRI | -0.321 ± 0.15 |
| IQIFEKGDFLGQMYETTEDCPSIMEQFHMREIHSCKVLEGVWIFYELPNYRGRQYLLDKKEYRKPIDWGAASPAVQSFRRI | 0.005 ± 0.041 |
| IQIFEKGDFSGQMYETTEDCPSIMEQFHMREIHSCKVLEGVWIEYELPNYRGRQYLLDKKEYRKPIDWGAASPAVQSFRRI | -0.951 ± 0.18 |
| IQIFEKGDFSGQMYETTEDCPSIMEQFHMREIHSCKVLEGVWIMYELPNYRGRQYLLDKKEYRKPIDWGAASPAVQSFRRI | 0.064 ± 0.055 |
| IQIFEKGDFSGQMYETTECCPSIMEQFHMREIHSCKVLEGVWIFYELPNYRGRQYLLDKKEYRKPIDWGAASPAVQSFRRI | -0.003 ± 0.086 |
| IQIFEKGDFSGQMYETTEDCPSIMEQFHMREIHSCKVLEGVWIFYELPNYRGRQYLLDKKEYWKPIDWGAASPAVQSFRRI | 0.065 ± 0.19 |
| IQIFEKGDFSGQMYETTEDCPSIMEQFHMREIHSCKVLEGVWIFYELPNYRGRQYLLDKKEYAKPIDWGAASPAVQSFRRI | -0.098 ± 0.23 |
| IQIFEKGDFSGQMYETTEDCPSIMEMFHMREIHSCKVLEGVWIFYELPNYRGRQYLLDKKEYRKPIDWGAASPAVQSFRRI | -0.04 ± 0.087 |
| IQIFEKGDFSGQMYETTEDCPSIMEIFHMREIHSCKVLEGVWIFYELPNYRGRQYLLDKKEYRKPIDWGAASPAVQSFRRI | -0.065 ± 0.15 |
| IQIFEKGDFSGQMYETTEDCPSIMEAFHMREIHSCKVLEGVWIFYELPNYRGRQYLLDKKEYRKPIDWGAASPAVQSFRRI | -0.018 ± 0.063 |
| IQIFEKGDFSGQMYETTEDCPSIMEQFHMREIHSCKVLEGVWIFYELPNYRGRQYLLDKKEYRKPIDWLAASPAVQSFRRI | 0.022 ± 0.13 |
| IQIFEKGDFSGQMYETTEDCPSIMEQFHMREIHSCKVLEGVWIFYELPNYRGRQYLLDKKEYRKPIDWQAASPAVQSFRRI | -0.166 ± 0.19 |
| IQIFEKGDFSGQMYETTEDCPSIMEQFHMREIHSCKVLEGVWIFYELPNYRGRQYLLDKKEYRKPIDWWAASPAVQSFRRI | -0.018 ± 0.12 |
| IQIFEKGDFSGQMYETTEDCPSIMEQFHMREIHSCHVLEGVWIFYELPNYRGRQYLLDKKEYRKPIDWGAASPAVQSFRRI | -0.013 ± 0.086 |

| Variant | abundance fitness |
| --- | --- |
| INIFEKGDFSGQMYETTEDCPSIMEQFHMREIHSCKVLEGVWIFYELPNYRGRQYLLDKKEYRKPIDWGAASPAVQSFRRI | 0.124 ± 0.13 |
| IQIFEKGDFSGQMYETTEDCPIIMEQFHMREIHSCKVLEGVWIFYELPNYRGRQYLLDKKEYRKPIDWGAASPAVQSFRRI | 0.033 ± 0.12 |
| IQIFEKGDFSGQMYETTEDCPSIMEQFHMREIHSCKVLEGVWIFYELPNYRGRQYLLDKKEYRKEIDWGAASPAVQSFRRI | -0.004 ± 0.28 |
| IQIFEKGDFSGQMYETTEDCPSIMEQFHMREIHSCKVLEGVWIFYELPNYRGRQYLLDKKEYRKYIDWGAASPAVQSFRRI | 0.199 ± 0.3 |
| IQIFEKGDFSGQMYETTEDCPSIMEQFHMREIHSCKVLEGVWIFCELPNYRGRQYLLDKKEYRKPIDWGAASPAVQSFRRI | -0.273 ± 0.1 |
| IQIFEKGDFSGQMYETTEDCPSIDEQFHMREIHSCKVLEGVWIFYELPNYRGRQYLLDKKEYRKPIDWGAASPAVQSFRRI | -0.11 ± 0.16 |
| IQIFEKGDFSGQMYETTEDCPSISEQFHMREIHSCKVLEGVWIFYELPNYRGRQYLLDKKEYRKPIDWGAASPAVQSFRRI | -0.088 ± 0.074 |
| IQIFEKGDFSGQMYQTTEDCPSIMEQFHMREIHSCKVLEGVWIFYELPNYRGRQYLLDKKEYRKPIDWGAASPAVQSFRRI | 0.018 ± 0.11 |
| IQIFEKGDFSGQMYETTEDCPSIMEQFHMREIHSCKVLEGVWIFYELPNYRGRQYLLDKVEYRKPIDWGAASPAVQSFRRI | -0.242 ± 0.18 |
| IQIFEKGDFSGQMYETTEDCPSIMEQFHMREIHSCKVLEGVWIFYELPNYRGRQYLLDKKEYRKPQDWGAASPAVQSFRRI | 0.185 ± 0.46 |
| IQIFEKVDFSGQMYETTEDCPSIMEQFHMREIHSCKVLEGVWIFYELPNYRGRQYLLDKKEYRKPIDWGAASPAVQSFRRI | -0.012 ± 0.043 |
| IQIFEKYDFSGQMYETTEDCPSIMEQFHMREIHSCKVLEGVWIFYELPNYRGRQYLLDKKEYRKPIDWGAASPAVQSFRRI | -0.025 ± 0.086 |
| IQIFEKDDFSGQMYETTEDCPSIMEQFHMREIHSCKVLEGVWIFYELPNYRGRQYLLDKKEYRKPIDWGAASPAVQSFRRI | -0.019 ± 0.091 |
| IQIFEKGDFSGVMYETTEDCPSIMEQFHMREIHSCKVLEGVWIFYELPNYRGRQYLLDKKEYRKPIDWGAASPAVQSFRRI | 0.005 ± 0.039 |
| IQIFEKGDFSGAMYETTEDCPSIMEQFHMREIHSCKVLEGVWIFYELPNYRGRQYLLDKKEYRKPIDWGAASPAVQSFRRI | -0.02 ± 0.036 |
| IQIFEKGDFSGQMYETTEDCPSIMEQFHMREIHSCKVLEGVWIFYELPNYRGRQYLLDKKEYRKPIDWGAASPARQSFRRI | -0.665 ± 0.23 |
| IQIFEKGDFSGQMYETTEDCPSIMEQDHMREIHSCKVLEGVWIFYELPNYRGRQYLLDKKEYRKPIDWGAASPAVQSFRRI | -0.156 ± 0.13 |
